According to PMC2133165 (The Journal of Cell Biology, 1999):

What was measured:
SF3a120 = target: T1, SF3a120 (human (endogenous in HeLa), UniProt Q15459 1-793); assay: co-IP
T1 sequence: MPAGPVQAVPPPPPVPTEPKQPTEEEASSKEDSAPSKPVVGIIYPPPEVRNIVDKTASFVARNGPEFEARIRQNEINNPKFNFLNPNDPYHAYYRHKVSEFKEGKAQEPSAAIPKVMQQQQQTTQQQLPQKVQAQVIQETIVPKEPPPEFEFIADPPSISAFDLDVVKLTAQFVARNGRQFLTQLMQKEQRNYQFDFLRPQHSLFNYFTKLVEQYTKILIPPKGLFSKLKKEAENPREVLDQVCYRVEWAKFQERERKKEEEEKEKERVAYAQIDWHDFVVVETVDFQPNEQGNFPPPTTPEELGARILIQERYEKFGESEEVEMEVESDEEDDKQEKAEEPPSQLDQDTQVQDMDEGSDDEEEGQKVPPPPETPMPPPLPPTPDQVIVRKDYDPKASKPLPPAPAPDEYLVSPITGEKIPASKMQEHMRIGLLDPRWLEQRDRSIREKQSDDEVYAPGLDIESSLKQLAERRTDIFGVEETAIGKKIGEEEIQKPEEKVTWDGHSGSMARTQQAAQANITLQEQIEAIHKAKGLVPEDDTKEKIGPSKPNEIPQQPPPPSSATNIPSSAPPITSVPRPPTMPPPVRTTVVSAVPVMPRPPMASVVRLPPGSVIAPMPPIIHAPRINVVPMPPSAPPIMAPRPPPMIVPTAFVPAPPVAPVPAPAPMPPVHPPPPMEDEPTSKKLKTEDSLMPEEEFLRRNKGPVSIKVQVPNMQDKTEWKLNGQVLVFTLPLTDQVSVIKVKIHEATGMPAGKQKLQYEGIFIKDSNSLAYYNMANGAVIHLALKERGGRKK

SF3a60 = target: T2, SF3a60 (human (endogenous in HeLa), UniProt Q12874 1-501); assay: co-IP
T2 sequence: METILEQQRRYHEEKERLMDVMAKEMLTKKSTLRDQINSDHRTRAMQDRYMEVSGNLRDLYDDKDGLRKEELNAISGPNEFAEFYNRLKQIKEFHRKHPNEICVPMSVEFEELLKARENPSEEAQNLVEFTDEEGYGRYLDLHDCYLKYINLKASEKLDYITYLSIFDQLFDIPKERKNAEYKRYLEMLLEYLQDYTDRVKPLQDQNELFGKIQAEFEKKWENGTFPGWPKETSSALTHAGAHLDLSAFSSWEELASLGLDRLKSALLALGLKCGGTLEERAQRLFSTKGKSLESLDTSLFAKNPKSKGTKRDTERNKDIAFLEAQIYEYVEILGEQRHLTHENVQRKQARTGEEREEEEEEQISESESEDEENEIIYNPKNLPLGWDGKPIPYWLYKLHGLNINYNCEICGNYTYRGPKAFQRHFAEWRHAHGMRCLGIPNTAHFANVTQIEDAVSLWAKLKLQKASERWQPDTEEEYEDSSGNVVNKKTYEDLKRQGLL

B1: SF3a66 (natural protein)
chain: MDFQHRPGGKTGSGGVASSSESNRDRRERLRQLALETIDINKDPYFMKNHLGSYECKLCLTLHNNEGSYLAHTQGKKHQTNLARRAAKEAKEAPAQPAPEKVKVEVKKFVKIGRPGYKVTKQRDSEMGQQSLLFQIDYPEIAEGIMPRHRFMSAYEQRIEPPDRRWQYLLMAAEPYETIAFKVPSREIDKAEGKFWTHWNRETKQFFLQFHFKMEKPPAPPSLPAGPPGVKRPPPPLMNGLPPRPPLPESLPPPPPGGLPLPPMPPTGPAPSGPPGPPQLPPPAPGVHPPAPVVHPPASGVHPPAPGVHPPAPGVHPPAPGVHPPTSGVHPPAPGVHPPAPGVHPPAPGVHPPAPGVHPPAPGVHPPPSAGVHPQAPGVHPAAPAVHPQAPGVHPPAPGMHPQAPGVHPQPPGVHPSAPGVHPQPPGVHPSNPGVHPPTPMPPMLRPPLPSEGPGNIPPPPPTN
binding result (SF3a120): binds | binding result (SF3a60): binds
